Assay results from US20020160955A1 (published 2002).

Legend:
Test in all cases: competitive phage ELISA
[1] = biological target: T1, IGF-I F23A (G1S-A70V background) displayed on phage (human; bacteriophage M13, not fully specified; Displayed monovalently on M13 phage as a C-terminal fusion to the gene III fragment, which is left out of the letters.)
T1 construct: monovalent M13 phage display; not shown: Display carrier: M13 gene III fragment (residues 249-406) and its junction
T1 chain: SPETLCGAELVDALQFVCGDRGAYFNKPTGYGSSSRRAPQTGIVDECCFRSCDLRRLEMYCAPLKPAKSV
Protocol: (§1) Phage particles were harvested and resuspended in PBS buffer as described in Lowman, H. B., “Phage Display of Peptide Libraries on Protein Scaffolds,” in Cabilly, S. (ed.), Combinatorial Peptide Library Protocols (Humana Press Inc.: Totowa, N.J., 1998), pp. 249-264. Then phage concentrations were normalized to yield a maximal ELISA signal of 0.2-0.4 for each mutant (Lowman, in Cabilly, S. (ed.), supra). Threefold serial dilutions of soluble competitor were prepared on non-absorbent microtiter plates (Nunc, F, 96 wells) with binding buffer (0.5% TWEEN™ 20/PBS) containing phage at the previously-determined concentrations. […] After blocking, the plates containing immobilized target were washed with 0.05% TWEEN™/PBS buffer and subsequently incubated with 80 μl/well of the premixed phage-competitor solutions for 1 hour at room temperature. After washing, bound phage was detected with 80 μl/well of a solution containing a primary rabbit anti-phage polyclonal antibody and a secondary goat anti-rabbit monoclonal antibody-horseradish peroxidase conjugate in 0.5% TWEEN 20™/PBS. o-Phenylenediamine (Sigma) and tetramethylbenzidine (Kirkegaard and Perry) were used as chromogenic substrates, resulting in product detection at 492 and 450 nm, respectively. IC₅₀ values were determined by fitting the binding data to a generic saturation curve (Lowman, in Cabilly, S. (ed.), supra). […] Numbers in Table I represent mean +standard deviation of individually assessed IC₅₀ values.
(§2) At least two different clones of every mutant were tested.

[2] = biological target: T2, IGF-I S34A (G1S-A70V background) displayed on phage (human; bacteriophage M13)
T2 construct: monovalent M13 phage display; not shown: M13 gene III fragment (residues 249-406, display partner) and the junction to it
T2 chain: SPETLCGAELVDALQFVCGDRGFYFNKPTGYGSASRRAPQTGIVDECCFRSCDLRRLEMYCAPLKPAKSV
Protocol: as §1, §2

[3] = biological target: T3, IGF-I Y24A (G1S-A70V background) displayed on phage (human; bacteriophage M13, not fully specified; Displayed monovalently on M13 phage as a C-terminal fusion to the gene III fragment, which is left out of the letters.)
T3 construct: monovalent M13 phage display; not shown: Display carrier: M13 gene III fragment (residues 249-406) and its junction
T3 chain: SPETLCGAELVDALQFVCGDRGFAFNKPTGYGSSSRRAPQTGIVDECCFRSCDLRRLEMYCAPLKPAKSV
Protocol: as §1, §2

[4] = biological target: T4, IGF-I R56A (G1S-A70V background) displayed on phage (human; bacteriophage M13)
T4 construct: monovalent M13 phage display
T4 chain: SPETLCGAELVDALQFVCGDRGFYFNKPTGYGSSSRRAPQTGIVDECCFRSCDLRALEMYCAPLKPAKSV
Protocol: as §1, §2

[5] = biological target: T5, des(1-2)-IGF-I displayed on phage (human; bacteriophage M13)
T5 construct: range 249-406; monovalent M13 phage display
Protocol: as §1, §2

[6] = biological target: T6, IGF-I T41A (G1S-A70V background) displayed on phage (human; bacteriophage M13)
T6 construct: monovalent M13 phage display
T6 chain: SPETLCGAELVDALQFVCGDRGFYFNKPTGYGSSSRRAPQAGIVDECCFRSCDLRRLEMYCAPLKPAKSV
Protocol: as §1, §2

[7] = biological target: T7, IGF-I S51A (G1S-A70V background) displayed on phage (human; bacteriophage M13)
T7 construct: monovalent M13 phage display
T7 chain: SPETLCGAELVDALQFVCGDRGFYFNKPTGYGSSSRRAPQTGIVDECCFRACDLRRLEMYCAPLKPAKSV
Protocol: as §1, §2

[8] = biological target: T8, IGF-I Q15A (G1S-A70V background) displayed on phage (human; bacteriophage M13)
T8 construct: monovalent M13 phage display
T8 chain: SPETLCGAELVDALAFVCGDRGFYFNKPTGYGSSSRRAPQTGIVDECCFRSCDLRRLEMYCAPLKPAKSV
Protocol: as §1, §2

[9] = biological target: T9, IGF-I D53A (G1S-A70V background) displayed on phage (human; bacteriophage M13)
T9 construct: monovalent M13 phage display
T9 chain: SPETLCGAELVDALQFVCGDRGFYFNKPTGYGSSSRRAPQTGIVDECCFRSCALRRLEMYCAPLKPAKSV
Protocol: as §1, §2

[10] = biological target: T10, Ala(1-3)-IGF-I displayed on phage (human; bacteriophage M13, UniProt P69168 267-424)
T10 chain: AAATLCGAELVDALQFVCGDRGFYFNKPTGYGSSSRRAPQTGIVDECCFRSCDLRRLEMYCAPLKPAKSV
Protocol: as §1, §2

[11] = biological target: T11, IGF-I Q40A (G1S-A70V background) displayed on phage (human; bacteriophage M13)
T11 construct: monovalent M13 phage display
T11 chain: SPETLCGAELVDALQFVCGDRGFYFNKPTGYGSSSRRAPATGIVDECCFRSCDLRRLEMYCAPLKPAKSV
Protocol: as §1, §2

[12] = biological target: T12, IGF-I L54A (G1S-A70V background) displayed on phage (human; bacteriophage M13)
T12 construct: monovalent M13 phage display
T12 chain: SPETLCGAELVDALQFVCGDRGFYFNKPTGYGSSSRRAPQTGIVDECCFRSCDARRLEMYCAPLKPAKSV
Protocol: as §1, §2

[13] = biological target: T13, IGF-I V17A (G1S-A70V background) displayed on phage (human; bacteriophage M13)
T13 construct: monovalent M13 phage display
T13 chain: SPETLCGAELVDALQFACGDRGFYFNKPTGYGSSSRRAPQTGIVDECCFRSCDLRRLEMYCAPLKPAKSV
Protocol: as §1, §2

[14] = biological target: T14, IGF-I S35A (G1S-A70V background) displayed on phage (human; bacteriophage M13)
T14 construct: monovalent M13 phage display
T14 chain: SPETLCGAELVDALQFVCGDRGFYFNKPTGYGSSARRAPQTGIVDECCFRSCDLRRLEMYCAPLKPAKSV
Protocol: as §1, §2

[15] = biological target: T15, IGF-I G19A (G1S-A70V background) displayed on phage (human; bacteriophage M13)
T15 construct: monovalent M13 phage display
T15 chain: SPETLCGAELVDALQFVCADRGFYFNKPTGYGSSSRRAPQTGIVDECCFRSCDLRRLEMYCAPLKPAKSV
Protocol: as §1, §2

[16] = biological target: T16, IGF-I S1G (G1S-A70V background) displayed on phage (human; bacteriophage M13, UniProt P69168 267-424)
T16 construct: range 249-406; monovalent M13 phage display
Protocol: as §1, §2

B1: human IGFBP-1 (other, UniProt P08833 26-259, looked up)
chain: APWQCAPCSAEKLALCPPVSASCSEVTRSAGCGCCPMCALPLGAACGVATARCARGLSCRALPGEQQPLHALTRGQGACVQESDASAPHAAEAGSPESPESTEITEEELLDNFHLMAPSEEDHSILWDAISTYDGSKALHVTNIKKWKEPCRIELYRVVESLAKAQETSGEEISKFYLPNCNKNGFYHSRQCETSMDGEAGLCWCVYPWNGKRIPGSPEIRGDPNCQIYFNVQN
notes: secreted recombinant protein purified from conditioned medium
IC50 [1]: 10.9 nM | IC50 [2]: 9.5 nM | IC50 [3]: 13.3 nM | IC50 [4]: 13.1 nM | IC50 [5]: 5 nM | IC50 [6]: 13.7 nM | IC50 [7]: 13.4 nM | IC50 [8]: 13.9 nM | IC50 [9]: 15.3 nM | IC50 [10]: 90.4 nM | IC50 [11]: 10.2 nM | IC50 [12]: 23.1 nM | IC50 [13]: 42.9 nM | IC50 [14]: 11.7 nM | IC50 [15]: 11 nM | IC50 [16]: 11.2 nM
